Experiments:
[1] = target: MBP-C125 (maltose-binding protein fused to the last 125 amino acids of APP), P05067
[2] = target: MBP-C125sw (maltose-binding protein fused to the last 125 amino acids of APP, Swedish double mutation) [MBP: P0AEX9]
[3] = target: T1, P26-P4′sw substrate ((biotin)CGGADRGLTTRPGSGLTNIKTEEISEVNLDAEF) (not fully specified)
T1 chain: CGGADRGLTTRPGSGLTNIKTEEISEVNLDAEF

[4] = target: APP 751 wild type (expressed from pohCK751), P05067
[5] = target: APP 751 with the Swedish mutation (APPsw), P05067
Sequence of APP 751 with the Swedish mutation (APPsw), P05067 (P05067 whole entry, looked up, change not shown): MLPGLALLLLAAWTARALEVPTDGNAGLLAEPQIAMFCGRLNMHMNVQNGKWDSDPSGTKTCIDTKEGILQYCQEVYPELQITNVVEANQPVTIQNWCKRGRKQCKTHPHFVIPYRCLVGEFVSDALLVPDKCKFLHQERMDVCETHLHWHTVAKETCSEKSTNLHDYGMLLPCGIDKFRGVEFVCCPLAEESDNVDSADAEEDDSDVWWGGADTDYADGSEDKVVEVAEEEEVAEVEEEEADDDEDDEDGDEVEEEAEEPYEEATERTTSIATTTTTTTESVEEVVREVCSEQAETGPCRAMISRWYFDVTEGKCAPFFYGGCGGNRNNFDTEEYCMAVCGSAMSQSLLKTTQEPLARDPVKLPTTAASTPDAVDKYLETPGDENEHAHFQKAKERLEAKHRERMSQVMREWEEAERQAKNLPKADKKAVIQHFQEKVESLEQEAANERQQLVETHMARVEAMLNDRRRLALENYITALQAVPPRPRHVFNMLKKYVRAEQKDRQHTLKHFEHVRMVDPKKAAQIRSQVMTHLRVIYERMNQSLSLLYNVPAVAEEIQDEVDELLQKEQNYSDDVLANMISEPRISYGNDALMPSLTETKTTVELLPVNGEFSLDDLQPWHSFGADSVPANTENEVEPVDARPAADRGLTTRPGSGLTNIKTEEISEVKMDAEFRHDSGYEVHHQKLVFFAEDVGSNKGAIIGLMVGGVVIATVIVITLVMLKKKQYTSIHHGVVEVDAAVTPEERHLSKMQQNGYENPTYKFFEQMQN

Sequence of MBP-C125 (maltose-binding protein fused to the last 125 amino acids of APP), P05067 (P05067 whole entry, looked up, the tested form may be a part): as the sequence (P05067 whole entry, looked up, change not shown) above
Sequence of APP 751 wild type (expressed from pohCK751), P05067 (P05067 whole entry, looked up): as the sequence (P05067 whole entry, looked up, change not shown) above

B1: 452stop (recombinant β-secretase extending from position 1 to 452) (protein)
chain: TQHGIRLPLRSGLGGAPLGLRLPRETDEEPEEPGRRGSFVEMVDNLRGKSGQGYYVEMTVGSPPQTLNILVDTGSSNFAVGAAPHPFLHRYYQRQLSSTYRDLRKGVYVPYTQGKWEGELGTDLVSIPHGPNVTVRANIAAITESDKFFINGSNWEGILGLAYAEIARPDDSLEPFFDSLVKQTHVPNLFSLQLCGAGFPLNQSEVLASVGGSMIIGGIDHSLYTGSLWYTPIRREWYYEVIIVRVEINGQDLKMDCKEYNYDKSIVDSGTTNLRLPKKVFEAAVKSIKAASSTEKFPDGFWLGEQLVCWQAGTTPWNIFPVISLYLMGEVTNQSFRITILPQQYLRPVEDVATSQDDCYKFAISQSSTGTVMGAVIMEGFYVVFDRARKRIGFAVSACHVHDEFRTAAVEGPFVTLDMEDCGYNIPQTDEDYKDDDDK
With B1 the cleavage of substrate [1] was “Both enzymes exhibited activity in cleaving β-secretase substrates such as MBP-C125”, the cleavage of substrate [2] was “exhibited activity in cleaving the MBP-C125sw substrate” and the cleavage of substrate [3] was “exhibited activity in cleaving the MBP-C125sw substrate as well as the P26-P4′ substrate”.

B2: FLp501 (full length recombinant β-secretase having a C-terminal flag sequence) (protein)
chain: TQHGIRLPLRSGLGGAPLGLRLPRETDEEPEEPGRRGSFVEMVDNLRGKSGQGYYVEMTVGSPPQTLNILVDTGSSNFAVGAAPHPFLHRYYQRQLSSTYRDLRKGVYVPYTQGKWEGELGTDLVSIPHGPNVTVRANIAAITESDKFFINGSNWEGILGLAYAEIARPDDSLEPFFDSLVKQTHVPNLFSLQLCGAGFPLNQSEVLASVGGSMIIGGIDHSLYTGSLWYTPIRREWYYEVIIVRVEINGQDLKMDCKEYNYDKSIVDSGTTNLRLPKKVFEAAVKSIKAASSTEKFPDGFWLGEQLVCWQAGTTPWNIFPVISLYLMGEVTNQSFRITILPQQYLRPVEDVATSQDDCYKFAISQSSTGTVMGAVIMEGFYVVFDRARKRIGFAVSACHVHDEFRTAAVEGPFVTLDMEDCGYNIPQTDESTLMTIAYVMAAICALFMLPLCLMVCQWRCLRCLRQQHDDFADDISLLKDYKDDDDK
With B2 the cleavage of substrate [1] was “Both enzymes exhibited activity in cleaving β-secretase substrates such as MBP-C125”.

B3: full length β-secretase (clone 27; 1-501) (protein)
chain: TQHGIRLPLRSGLGGAPLGLRLPRETDEEPEEPGRRGSFVEMVDNLRGKSGQGYYVEMTVGSPPQTLNILVDTGSSNFAVGAAPHPFLHRYYQRQLSSTYRDLRKGVYVPYTQGKWEGELGTDLVSIPHGPNVTVRANIAAITESDKFFINGSNWEGILGLAYAEIARPDDSLEPFFDSLVKQTHVPNLFSLQLCGAGFPLNQSEVLASVGGSMIIGGIDHSLYTGSLWYTPIRREWYYEVIIVRVEINGQDLKMDCKEYNYDKSIVDSGTTNLRLPKKVFEAAVKSIKAASSTEKFPDGFWLGEQLVCWQAGTTPWNIFPVISLYLMGEVTNQSFRITILPQQYLRPVEDVATSQDDCYKFAISQSSTGTVMGAVIMEGFYVVFDRARKRIGFAVSACHVHDEFRTAAVEGPFVTLDMEDCGYNIPQTDESTLMTIAYVMAAICALFMLPLCLMVCQWRCLRCLRQQHDDFADDISLLK
For B3, the “Aβ(x-40) production (ELISA of conditioned media)” value [4] was “approximately 8-fold increase in Aβ(x-40) production” and the “Aβ(x-40) production (ELISA of conditioned media)” value [5] was “approximate 2-fold increase in Aβ(x-40)”.

B4: β-secretase purified from human brain (naturally occurring) (protein)
chain: ETDEEPEEPGRRGSFVEMVDNLRGKSGQGYYVEMTVGSPPQTLNILVDTGSSNFAVGAAPHPFLHRYYQRQLSSTYRDLRKGVYVPYTQGKWEGELGTDLVSIPHGPNVTVRANIAAITESDKFFINGSNWEGILGLAYAEIARPDDSLEPFFDSLVKQTHVPNLFSLQLCGAGFPLNQSEVLASVGGSMIIGGIDHSLYTGSLWYTPIRREWYYEVIIVRVEINGQDLKMDCKEYNYDKSIVDSGTTNLRLPKKVFEAAVKSIKAASSTEKFPDGFWLGEQLVCWQAGTTPWNIFPVISLYLMGEVTNQSFRITILPQQYLRPVEDVATSQDDCYKFAISQSSTGTVMGAVIMEGFYVVFDRARKRIGFAVSACHVHDEFRTAAVEGPFVTLDMEDCGYNIPQTDESTLMTIAYVMAAICALFMLPLCLMVCQWRCLRCLRQQHDDFADDISLLK
B4 gave a Specific Activity (MBP-C125sw assay), Affinity Eluate (nM/h/µg prot.) [2] of 258000 and a Specific Activity (MBP-C125sw assay), Anion Exchange Pool (nM/h/µg prot.) [2] of 1.49e+06.

Source: US7115410
